Biological target: T1, SARS-CoV-2 WA-1 RBD protein (SARS-CoV-2, UniProt P0DTC2 319-541)
T1 construct: domain: RBD
Experiment: ELISA, plate coated with WA1 RBD

B1: B2-269.1 (antibody, V domains shown)
VH: EVQLVESGGGLVQPGGSLRLSCAASGITVSSNYMSWVRQPPGKGLDWVSLIFSGGSTYYADSVKGRFTISRDNSKNTLYLQMNSLRAEDTAVYYCARVGVAVAGTDYDIWGQGTMVTVSS
VL: DIQMTQSPSSLSASVGDRVTITCQASQDINKYLNWYQQKPGKAPKLLIYDASNLETGVPSRFSGSGSGTDFTFTISSLQPEDIATYYCLHYENLPLSFGGGTKVEIK
  EC50 (read off the curve): ~4 ng/mL
